Residue numbers refer to the chain shown, from its start. Each block holds one binder with its values, some of them ahead of it.
Biological target: LTBR (form used for the KD values not stated) (human, UniProt P36941 31-227, limits assumed)
Assay: method and format not stated

LTBR (form used for the KD values not stated), sequence (P36941 31-227 limits assumed): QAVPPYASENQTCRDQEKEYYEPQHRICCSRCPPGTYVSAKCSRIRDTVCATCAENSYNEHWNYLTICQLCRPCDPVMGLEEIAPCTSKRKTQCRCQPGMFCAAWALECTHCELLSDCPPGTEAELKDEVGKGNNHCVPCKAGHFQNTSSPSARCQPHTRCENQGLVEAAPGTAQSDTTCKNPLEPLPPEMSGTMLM

Kd: ~60 nM
B1: SEQ ID NO 53: stapled scFv (VL3 Y36F_S49Y_F87Y) BHA10 (VH-VL), lower affinity variant (scFv)
scFv: QVQLVQSGAEVKKPGSSVKVSCKASGYTFTTYYLHWVRQAPGCGLEWMGWIYPGNVHAQYNEKFKGRVTITADKSTSTAYMELSSLRSEDTAVYYCARSWEGFPYWGQGTTVTVSSGGGSGGGSGCPPCGGGGDIQMTQSPSSLSASVGDRVTITCKASQNVGINVAWFQQKPGKAPKSLIYSASYRYSGVPSRFSGSGSGTDFTLTISSLQPEDFATYYCQQYDTYPFTFGCGTKVEIK
notes: scFv used in COVA14107

Kd: ~600 nM
B2: SEQ ID NO 54: stapled scFv (VH_CDR1_Y33A) BHA10 (VH-VL), lower affinity variant (scFv)
scFv: B1 scFv with Y33A, F169Y, Y182S, Y220F
notes: scFv used in COVA14108
